# Substitutions are numbered along the chain they refer to. Names and notes keep the numbering of the source. Like-named read-outs stand apart in the source and are kept apart here.
# B1: CARMA1 (8–302) (domain or fragment, human, UniProt Q9BXL7 8-302, looked up)
# chain: MDDYMETLKDEEDALWENVECNRHMLSRYINPAKLTPYLRQCKVIDEQDEDEVLNAPMLPSKINRAGRLLDILHTKGQRGYVVFLESLEFYYPELYKLVTGKEPTRRFSTIVVEEGHEGLTHFLMNEVIKLQQQMKAKDLQRCELLARLRQLEDEKKQMTLTRVELLTFQERYYKMKEERDSYNDELVKVKDDNYNLAMRYAQLSEEKNMAVMRSRDLQLEIDQLKHRLNKMEEECKLERNQSLKLKNDIENRPKKEQVLELERENEMLKTKNQELQSIIQAGKRSLPDSDKAIL
# B2: Bcl10 R36E/E50R/D51R triple mutant (natural protein)
# chain: MEPTAPSLTEEDLTEVKKDALENLRVYLAEKIIAEEHFDHLRAKKILSRRRTEEISARTSSRKRAGKLLDYLQENPKGLDTLVESIRREKTQNFLIQKITDEVLKLRNIKLEHLKGLKCSSCEPFPDGATNNLSRSNSDESNFSEKLRASTVMYHPEGESSTTPFFSTNSSLNLPVLEVGRTENTIFSSTTLPRPGDPGAPPLPPDLQLEEEGTCANSSEMFLPLRSRTVSRQ
# B3: Alexa 488-labeled Bcl10 (C29A/C57A double mutant), MBP removed by TEV (natural protein, human, UniProt O95999 1-233, looked up)
# chain: B2 chain with E36R, R50E, R51D
# modifications: Alexa 488 label (site not stated)
# B4: CARMA1 (8–172) (domain or fragment, human, UniProt Q9BXL7 8-172, looked up)
# chain: MDDYMETLKDEEDALWENVECNRHMLSRYINPAKLTPYLRQCKVIDEQDEDEVLNAPMLPSKINRAGRLLDILHTKGQRGYVVFLESLEFYYPELYKLVTGKEPTRRFSTIVVEEGHEGLTHFLMNEVIKLQQQMKAKDLQRCELLARLRQLEDEKKQMTLTRVE
# How the values were obtained:
# SEC = biological target: the molecule itself; assay: SEC
# [1] = biological target: the molecule itself; assay: fluorescence polarisation
# [2] = biological target: the molecule itself; assay: fluorescence polarisation; remark: listed apart in the source
# [3] = biological target: the molecule itself; assay: fluorescence polarisation; remark: listed apart in the source
# SEC-MALS = biological target: the molecule itself; assay: SEC-MALS
protein,measurement,setting,value
B1,stoichiometry N,SEC,> 100
B2,polymerization activity relative to WT Bcl10,[1],~50%
B3,Kd,[2],4300 nM
same,Kd,[3],800 nM
B4,stoichiometry N,SEC-MALS,3
